From patent US20110046056A1, “APOA-1 PEPTIDE MIMETICS” (priority 2007, published 2011)
Where a SMILES comes first, the peptide text is derived from it. Where no end group is shown, it is not given here. [ ]: non-standard residue; d: D form. Ala(5-hexenyl) = C=CCCCCC[C@H](N)C(=O)O; dNle(6-vinyl) = C=CCCCC[C@@H](N)C(=O)O

B1: S7H [F6-E13]R6H OPEN (peptide)
peptide: Ac-PVLDE[Ala(5-hexenyl)]REKLNE[dNle(6-vinyl)]LEALKQKLK
B2: CONS[S7H^13] (peptide)
peptide: Ac-PVLDEFREKLNE[Ala(5-hexenyl)]LEALKQKLK

Assays:
[1] = biological target: T1, ABCA1 cholesterol transporter protein (Mus musculus, UniProt P41233); test: ABCA1-dependent cholesterol efflux from RAW mouse macrophage cells (in vitro RCT assay); type: cell-based; settings: read-out: EC50 in the cholesterol efflux assay (RCT in vitro assay)
T1 construct: endogenous in cells
T1 sequence (P41233 whole entry): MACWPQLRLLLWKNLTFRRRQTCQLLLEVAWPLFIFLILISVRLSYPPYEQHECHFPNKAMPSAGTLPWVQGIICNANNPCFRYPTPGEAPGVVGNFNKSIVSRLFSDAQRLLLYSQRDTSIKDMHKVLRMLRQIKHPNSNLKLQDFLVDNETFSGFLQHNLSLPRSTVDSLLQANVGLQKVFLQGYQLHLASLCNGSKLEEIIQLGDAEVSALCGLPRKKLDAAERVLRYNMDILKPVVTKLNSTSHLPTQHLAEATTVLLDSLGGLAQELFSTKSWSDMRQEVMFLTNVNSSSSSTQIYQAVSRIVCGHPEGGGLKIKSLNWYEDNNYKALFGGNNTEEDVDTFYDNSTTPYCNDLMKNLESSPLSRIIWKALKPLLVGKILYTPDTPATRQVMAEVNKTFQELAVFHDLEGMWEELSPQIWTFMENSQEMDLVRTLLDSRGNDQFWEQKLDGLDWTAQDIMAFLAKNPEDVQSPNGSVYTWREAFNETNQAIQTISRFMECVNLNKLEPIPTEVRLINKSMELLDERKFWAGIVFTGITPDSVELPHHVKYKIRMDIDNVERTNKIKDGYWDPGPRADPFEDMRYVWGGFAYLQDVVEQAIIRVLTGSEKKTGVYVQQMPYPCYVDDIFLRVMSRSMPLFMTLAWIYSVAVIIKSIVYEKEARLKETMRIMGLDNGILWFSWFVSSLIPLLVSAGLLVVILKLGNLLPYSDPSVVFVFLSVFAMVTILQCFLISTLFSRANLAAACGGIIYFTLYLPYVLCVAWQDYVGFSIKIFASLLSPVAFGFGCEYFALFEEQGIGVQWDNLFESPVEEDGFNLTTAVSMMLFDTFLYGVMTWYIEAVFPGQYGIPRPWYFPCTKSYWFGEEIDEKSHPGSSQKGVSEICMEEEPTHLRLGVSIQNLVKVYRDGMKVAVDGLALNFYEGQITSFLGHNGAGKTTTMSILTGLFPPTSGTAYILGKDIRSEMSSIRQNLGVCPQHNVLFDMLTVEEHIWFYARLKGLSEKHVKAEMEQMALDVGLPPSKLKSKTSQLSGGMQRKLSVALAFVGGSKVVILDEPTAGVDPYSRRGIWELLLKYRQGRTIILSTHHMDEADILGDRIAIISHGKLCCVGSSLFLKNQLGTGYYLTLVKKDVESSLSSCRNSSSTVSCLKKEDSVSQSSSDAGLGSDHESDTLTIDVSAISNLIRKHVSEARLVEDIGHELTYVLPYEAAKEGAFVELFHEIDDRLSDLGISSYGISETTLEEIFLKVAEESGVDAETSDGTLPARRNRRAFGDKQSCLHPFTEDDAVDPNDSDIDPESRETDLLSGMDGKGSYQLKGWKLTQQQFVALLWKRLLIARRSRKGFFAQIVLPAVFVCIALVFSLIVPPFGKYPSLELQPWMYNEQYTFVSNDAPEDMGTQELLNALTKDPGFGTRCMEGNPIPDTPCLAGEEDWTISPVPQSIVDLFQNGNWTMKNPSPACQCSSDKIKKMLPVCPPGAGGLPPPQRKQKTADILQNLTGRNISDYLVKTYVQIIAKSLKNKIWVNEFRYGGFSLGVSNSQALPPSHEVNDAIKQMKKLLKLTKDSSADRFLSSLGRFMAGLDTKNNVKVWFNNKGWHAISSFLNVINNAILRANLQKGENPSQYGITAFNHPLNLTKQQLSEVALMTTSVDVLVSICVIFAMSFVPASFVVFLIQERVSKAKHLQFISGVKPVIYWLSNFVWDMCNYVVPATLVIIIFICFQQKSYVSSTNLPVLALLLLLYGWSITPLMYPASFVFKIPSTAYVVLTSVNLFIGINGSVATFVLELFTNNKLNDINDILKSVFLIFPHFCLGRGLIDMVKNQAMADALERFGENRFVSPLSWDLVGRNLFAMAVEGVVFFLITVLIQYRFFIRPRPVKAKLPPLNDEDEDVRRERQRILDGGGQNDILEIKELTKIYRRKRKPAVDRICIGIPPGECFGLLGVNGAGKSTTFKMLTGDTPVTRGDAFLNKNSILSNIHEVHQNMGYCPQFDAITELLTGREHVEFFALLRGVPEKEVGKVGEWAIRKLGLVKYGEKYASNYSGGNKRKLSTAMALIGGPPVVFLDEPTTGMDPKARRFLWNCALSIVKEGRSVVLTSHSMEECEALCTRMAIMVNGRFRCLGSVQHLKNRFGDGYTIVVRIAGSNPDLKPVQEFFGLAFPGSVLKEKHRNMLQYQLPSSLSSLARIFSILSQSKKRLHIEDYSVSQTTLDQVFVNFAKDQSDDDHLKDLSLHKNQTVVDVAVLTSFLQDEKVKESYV
Procedure, shortened: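 RAW macrophages labelled with ^3H-cholesterol (5 μCi/ml) 24 h, equilibrated overnight serum-free, then given eight-point peptide titrations 24 h with or without 150 μM CPT-cAMP. Percent efflux = medium counts/(medium + lysate); plain-medium efflux subtracted from cAMP value gives ABCA1-dependent efflux, fitted for EC50.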

[2] = test system: atheroma in ApoE-deficient mice; test: Atheroma volume in ApoE-deficient mice by magnetic resonance imaging; type: in vivo, mouse; settings: 20 mg per kg subcutaneously once daily; after 5 weeks of treatment; compared to vehicle-treated apoE-deficient mice; MRI
Description: The ultimate goal of developing these mimetic peptides was for the acute and chronic treatment of atherosclerotic lesions in human patients.

human red blood cells = test: Red blood cell (RBC) lysis assay; type: cell-based
Procedure: The RBC lysis assay has been described previously (Kurtz, M. B. et al. (1994); Wang, J. et al., PNAS 104 (18), 7612-7616 (2007)). Basically, human erythrocytes are collected in a vacutainer tube with EDTA from human donors. Two ml of the freshly drawn whole blood is added to 6 ml of sterile saline and gently mixed then centrifuged at 5° C. for 5 minutes at 2000 rpm. The supernatant is discarded and the human red blood cells are resuspended with 6 ml of sterile saline and centrifuged again at 5° C. for 5 minutes at 2000 rpm. This procedure is repeated 2 times. A three percent suspension of the washed red blood cells is prepared by adding 0.3 ml of the washed red blood cells to 9.7 ml of sterile saline. The final concentration of test peptide ranging 160-2.5 (or 150-2.3) μM in 100 μl sterile saline containing 3.2% Me2SO is prepared in 96-well MICROTEST U-bottom plates (BECTON DICKINSON, BD-353227). The RBC lysis is initiated by addition of 5 μl of 3% washed human red blood cell suspension to the each well in the plates. The plates are incubated overnight at room temperature, then centrifuged at 2000 rpm for 5 minutes and read immediately. Hemolysis of red blood cells is indicated by complete or partial clearing (lysis) of the supernatants with either no or a rough RBC pellet in the bottom of the wells. […]

[3] = biological target: T2, ATP-binding cassette transporter A1 (ABCA1) (mouse, UniProt P41233 1-2261); test: cell-based or functional assay
T2 sequence (P41233 whole entry): as above

[4] = biological target: T2, ATP-binding cassette transporter A1 …; test: cell-based or functional assay; remark: listed apart in the source

Molecule | ABCA1-dependent cholesterol efflux EC50 [3] [µM] | EC50 in the cholesterol efflux assay [4] [µM] | other results
C=CCCCCC[C@H](NC(=O)[C@H](CCC(=O)O)NC(=O)[C@H](CC(N)=O)NC(=O)[C@H](CC(C)C)NC(=O)[C@H](CCCCN)NC(=O)[C@H](CCC(=O)O)NC(=O)[C@H](CCCNC(=N)N)NC(=O)[C@H](CCCCCC=C)NC(=O)[C@H](CCC(=O)O)NC(=O)[C@H](CC(=O)O)NC(=O)[C@H](CC(C)C)NC(=O)[C@@H](NC(=O)[C@@H]1CCCN1C(C)=O)C(C)C)C(=O)N[C@@H](CC(C)C)C(=O)N[C@@H](CCC(=O)O)C(=O)N[C@@H](C)C(=O)N[C@@H](CC(C)C)C(=O)N[C@@H](CCCCN)C(=O)N[C@@H](CCC(N)=O)C(=O)N[C@@H](CCCCN)C(=O)N[C@@H](CC(C)C)C(=O)N[C@@H](CCCCN)C(N)=O [SEQ ID NO 43, PVLDES7HREKLNES7HLEALKQKLK] (Ac-PVLDE[Ala(5-hexenyl)]REKLNE[Ala(5-hexenyl)]LEALKQKLK-NH2; C-terminus assumed) | – | – | EC50 [1]: 0.3 µM; atheroma volume [2]: significant reduction
O=C(N[C@H](CO)[C@H](O)c1ccc([N+](=O)[O-])cc1)C(Cl)Cl [Chloramphenicol] | – | – | minimum lytic concentration (MLC) (human red blood cells): > 64 µg/mL
B1 | 1.3 | 1.2 | –
B2 | 2 | 2.8 | EC50 in the RCT in vitro assay [4]: 1.6 µM
